Assay results from patent US20200131249A1 (EVOLVERITAS KFT, published 2020).
Positions count from the first letter of the chain named. Where no end group is shown, it is not given here.

T1: human MASP-3 catalytic fragment CCP1-CCP2-SP (human, UniProt P48740-2 298-728, limits assumed)
T1 construct: domain: CCP1-CCP2-SP
T1 sequence (looked up): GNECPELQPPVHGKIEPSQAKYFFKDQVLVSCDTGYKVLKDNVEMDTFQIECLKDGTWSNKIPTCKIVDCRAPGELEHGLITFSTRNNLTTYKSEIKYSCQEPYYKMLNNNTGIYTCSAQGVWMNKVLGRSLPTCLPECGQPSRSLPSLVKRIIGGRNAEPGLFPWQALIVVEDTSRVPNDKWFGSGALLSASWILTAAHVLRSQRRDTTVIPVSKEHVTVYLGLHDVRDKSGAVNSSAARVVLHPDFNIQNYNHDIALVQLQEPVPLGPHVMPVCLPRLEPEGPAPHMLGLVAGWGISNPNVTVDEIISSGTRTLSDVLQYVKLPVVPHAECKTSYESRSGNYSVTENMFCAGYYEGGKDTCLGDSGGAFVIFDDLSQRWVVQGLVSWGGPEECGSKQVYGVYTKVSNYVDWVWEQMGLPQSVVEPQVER

T2: human MASP-1 catalytic fragment CCP1-CCP2-SP (human, UniProt P48740 298-699, limits assumed)
T2 construct: domain: CCP1-CCP2-SP
T2 sequence (looked up): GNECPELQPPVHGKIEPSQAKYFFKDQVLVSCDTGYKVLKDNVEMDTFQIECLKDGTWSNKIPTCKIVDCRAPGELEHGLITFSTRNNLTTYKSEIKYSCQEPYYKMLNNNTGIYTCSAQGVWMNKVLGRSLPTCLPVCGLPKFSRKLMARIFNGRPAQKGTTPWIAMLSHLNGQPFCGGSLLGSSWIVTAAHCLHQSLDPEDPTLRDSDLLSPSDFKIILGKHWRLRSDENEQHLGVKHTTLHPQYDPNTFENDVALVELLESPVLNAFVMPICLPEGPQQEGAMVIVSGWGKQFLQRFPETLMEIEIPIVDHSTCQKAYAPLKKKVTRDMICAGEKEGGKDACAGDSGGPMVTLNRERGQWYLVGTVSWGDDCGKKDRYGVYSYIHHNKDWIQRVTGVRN

T3: TFPI-D2, second Kunitz domain (residues 121-178) of human Tissue Factor Pathway Inhibitor-1 (human, UniProt P10646 121-178)
T3 construct: Recombinant, made as m1; also called parental TFPI-D2; human TFPI-D2
T3 sequence: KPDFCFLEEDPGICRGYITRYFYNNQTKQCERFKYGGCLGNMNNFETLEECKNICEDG

B1: protein according to SEQ ID NO: 11 (TFPI-D2 variant with the inhibitor loop FCRAVKR) (designed binder)
chain: T3 sequence with I13F, G16A, Y17V, I18K, T19R
modifications: ends and bridges not checked; cysteine pairing not given here
notes: Made in E. coli as a His6-S100A4 fusion and freed by TEV protease
B2: protein according to SEQ ID NO: 14 (TFPI-D2 variant with the inhibitor loop PCRAVKR) (designed binder)
chain: T3 sequence with I13P, G16A, Y17V, I18K, T19R
modifications: ends and bridges not checked; cysteine pairing not given here
notes: Made as m1
B3: protein according to SEQ ID NO: 17 (TFPI-D2 variant with the inhibitor loop VCRAVKR) (designed binder)
chain: T3 sequence with I13V, G16A, Y17V, I18K, T19R
modifications: ends and bridges not checked; cysteine pairing not given here
notes: Made as m1
B4: rat MASP-2 catalytic fragment CCP1-CCP2-SP (enzyme)
chain: MTQPCPDPTAPPNGHISPVQATYVLKDSFSVFCKTGFELLQGSVPLKSFTAVCQKDGSWDRPIPECSIIDCGPPDDLPNGHVDYITGPEVTTYKAVIQYSCEETFYTMSSNGKYVCEADGFWTSSKGEKSLPVCKPVCGLSTHTSGGRIIGGQPAKPGDFPWQVLLLGETTAAGALIHDDWVLTAAHAVYGKTEAMSSLDIRMGILKRLSPHYTQAWPEAVFIHEGYTHGAGFDNDIALIKLKNKVTINRNIMPICLPRKEAASLMKTDFVGTVAGWGLTQKGFLARNLMFVDIPIVDHQKCATAYTKQPYPGAKVTVNMLCAGLDAGGKDSCRGDSGGALVFLDNETQRWFVGGIVSWGSINCGGSEQYGVYTKVTNYIPWIENIINNF
notes: Mw 42309 Da; also called rat MASP-2cf; MASP2cf

Columns and labels:
[1] = biological target: bovine trypsin (Sigma-T1426) (bovine, UniProt P00760 24-246); test: fluorometric residual activity, Z-Gly-Pro-Arg-AMC, tight-binding fit
Method: The KI values of the inhibitors on bovine trypsin were also determined. In these experiments, we used bovine trypsin (Sigma—T1426). The concentration of trypsin was determined by fluorescent active-site titration based on Jameson 1973. The measurements were done in 200 μL final assay volume of 50 mM Tris, 10 mM CaCl2, 0.005% Triton X-100 pH 8.0 buffer on 96-well black microtiter plates (Thermo Scientific Sterilin—611F96BK) using a BioTek Synergy H4 multimode microplate reader.
Constant predefined concentrations of the enzymes were mixed with serial dilutions of the inhibitors and co-incubated at room temperature until reaching equilibrium. The incubation times were 5 h in the case of the protein according to SEQ ID NO: 11, 8 h in the case of TFPI-D2 and the protein according to SEQ ID NO: 17 and 24 h in the case of the protein according to SEQ ID NO: 14. Then, 10 μM (final concentration) of Z-Gly-Pro-Arg-AMC substrate was added to the samples. The concentration of the free enzyme was determined through measuring the residual enzyme activity in a fluorometric kinetic assay at 380 nm excitation wavelength and 460 nm emission wavelength in two parallel experiments. Analyses of the data were done as described above.

[2] = biological target: T1, human MASP-3 catalytic fragment …; test: enzyme inhibition, Z-L-Lys-SBzl/DTNB, catalytic fragment
Method: (§1) For determining the KI of the inhibitors on MASP enzymes we used catalytic enzyme fragments containing the three C-terminal domains: CCP1-CCP2-SP. The synthetic substrate used in the measurements was Z-L-Lys-SBzl hydrochloride (Sigma, C3647), from which a 10 mM stock solution was prepared. The reactions were performed in a volume of 0.2 ml at room temperature in a buffer consisting of 20 mM HEPES; 145 mM NaCl; 5 mM CaCl₂; 0.05% Triton-X100. The substrate cleaved by the enzyme entered into a reaction with the 5,5′-Dithiobis(2-nitrobenzoic acid) (DTNB, Ellman's reagent, Sigma—D8130) auxiliary substrate present in the solution in 2-fold excess to Z-L-Lys-SBzl. The release of the chromophore group created in this way was monitored via the change of absorbance at 410 nm using a BioTek Synergy H4 multimode microplate reader.
(§2) A dilution sequence was prepared from the individual inhibitors, the enzyme was added to it, and it was incubated for 2 hours at room temperature. The samples were transferred on a 96-well microtiter plate (Nunc 269620). The reactions were started by adding the mixture of the substrate and the auxiliary substrate to the samples. The concentration of the substrate and the length of the measuring period were chosen so that under the given conditions the enzyme should consume less than 10% of the substrate. In this case we used 250 μM Z-L-Lys-SBzl and 500 μM DTNB in the reactions. In the course of measuring, a method developed for the characterisation of tight-binding inhibitors was used (Empie, 1982). The concentration of the product was measured as a function of reaction time. The slope of the straight line determined for the initial phase of the reaction was normalised with the slope obtained for the uninhibited enzyme reaction, and this value was multiplied with the total enzyme concentration. As a result of this we obtained the free enzyme concentration, which was plotted as a function of the total inhibitor concentration and the Ki value was determined according to the following equation: […]

[3] = biological target: T2, human MASP-1 catalytic fragment …; test: as above
Method: as §1, §2

[4] = biological target: T4, human MASP-2 catalytic fragment CCP1-CCP2-SP (human, UniProt O00187 287-686, limits assumed); test: ratio of Ki values, enzyme inhibition
T4 construct: domain: CCP1-CCP2-SP; also called human MASP-2cf; human MASP2cf
Method: as §1, §2

[5] = biological target: T5, human MASP-2 enzyme as present in normal human serum (human, UniProt O00187 16-686); test: cell-based or functional assay
[6] = biological target: T4, human MASP-2 catalytic fragment …; test: enzyme inhibition, Z-L-Lys-SBzl/DTNB, tight-binding fit, catalytic fragment CCP1-CCP2-SP
Method: as §1, §2
(§3) where E is the free (uninhibited) enzyme concentration, and E₀ is the total enzyme concentration. The stock concentration of the inhibitors was determined by titration with bovine trypsin of known concentration. The results were calculated as the average of parallel measurements.

[7] = biological target: B4; test: as above
Method: as §1, §2, §3

[8] = biological target: B4; test: ratio of Ki values, enzyme inhibition
Method: as §1, §2

[9] = biological target: rat MASP-2 as present in rat serum (rat, UniProt Q9JJS8 20-685); test: cell-based or functional assay
[10] = biological target: T1, human MASP-3 catalytic fragment …; test: enzyme inhibition, Z-L-Lys-SBzl/DTNB, catalytic fragment; approximation based on a single measurement
Method: as §1
A dilution sequence was prepared from the individual inhibitors, the enzyme was added to it, and it was incubated for 2 hours at room temperature. The samples were transferred on a 96-well microtiter plate (Nunc 269620). […] The concentration of the product was measured as a function of reaction time. The slope of the straight line determined for the initial phase of the reaction was normalised with the slope obtained for the uninhibited enzyme reaction, and this value was multiplied with the total enzyme concentration. […]

[11] = biological target: T5, human MASP-2 enzyme as present in …; test: cell-based or functional assay; remark: listed apart in the source
[12] = biological target: T3, TFPI-D2, second Kunitz domain (residues …); test: enzyme inhibition

T4 sequence (O00187 287-686 limits assumed): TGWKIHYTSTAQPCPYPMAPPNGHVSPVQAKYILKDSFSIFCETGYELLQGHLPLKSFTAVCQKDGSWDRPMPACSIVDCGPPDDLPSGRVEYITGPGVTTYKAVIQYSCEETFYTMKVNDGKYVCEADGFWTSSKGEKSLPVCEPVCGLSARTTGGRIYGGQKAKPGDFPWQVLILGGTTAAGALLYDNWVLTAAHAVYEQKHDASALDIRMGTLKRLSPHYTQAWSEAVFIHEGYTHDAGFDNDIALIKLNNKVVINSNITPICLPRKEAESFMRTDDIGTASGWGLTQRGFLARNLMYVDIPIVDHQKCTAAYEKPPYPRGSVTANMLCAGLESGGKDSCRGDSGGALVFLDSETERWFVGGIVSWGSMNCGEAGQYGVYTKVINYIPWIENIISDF
Chain of bovine trypsin (Sigma-T1426) (P00760 24-246): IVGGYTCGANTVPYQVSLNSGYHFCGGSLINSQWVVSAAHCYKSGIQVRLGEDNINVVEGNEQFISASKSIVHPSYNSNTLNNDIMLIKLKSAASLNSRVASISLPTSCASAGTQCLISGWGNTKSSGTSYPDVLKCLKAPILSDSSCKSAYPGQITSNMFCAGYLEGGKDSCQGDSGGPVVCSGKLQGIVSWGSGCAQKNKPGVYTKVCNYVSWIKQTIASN
T5 sequence (O00187 16-686 limits assumed): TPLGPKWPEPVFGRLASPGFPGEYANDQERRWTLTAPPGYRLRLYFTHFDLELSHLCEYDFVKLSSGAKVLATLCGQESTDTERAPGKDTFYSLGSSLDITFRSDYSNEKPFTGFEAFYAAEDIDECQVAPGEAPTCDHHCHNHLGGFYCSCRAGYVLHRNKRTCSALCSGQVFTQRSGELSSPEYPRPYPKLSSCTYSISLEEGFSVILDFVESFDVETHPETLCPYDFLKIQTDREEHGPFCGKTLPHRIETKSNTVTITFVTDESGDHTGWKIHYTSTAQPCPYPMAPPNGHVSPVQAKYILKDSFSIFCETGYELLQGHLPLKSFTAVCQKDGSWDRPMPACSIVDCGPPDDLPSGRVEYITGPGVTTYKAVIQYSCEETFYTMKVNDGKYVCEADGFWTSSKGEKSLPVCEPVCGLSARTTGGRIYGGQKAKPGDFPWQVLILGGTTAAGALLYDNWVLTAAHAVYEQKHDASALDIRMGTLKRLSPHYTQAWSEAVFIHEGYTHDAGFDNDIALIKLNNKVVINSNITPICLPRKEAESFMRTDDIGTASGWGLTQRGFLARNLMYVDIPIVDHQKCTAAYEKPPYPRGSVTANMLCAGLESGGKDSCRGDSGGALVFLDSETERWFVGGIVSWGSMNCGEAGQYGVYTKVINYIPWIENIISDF

Binder | Ki [1] | binding result [2] | binding result [3] | fold more potent than SGMI-2 [4] | IC50 (nM), lectin pathway activity in diluted human serum (WIELISA, C5b-9) [5] | Ki [6] | Ki [7] | fold reduction of binding affinity against the protein of SEQ ID NO: 11 [4] | fold higher binding affinity than human TFPI-D2 [8] | fold more potent than SGMI-2 [8] | IC50 (nM), C3 deposition, lectin pathway in diluted rat serum on mannan [9] | IC50 (nM), C4 deposition, lectin pathway in diluted rat serum on mannan [9] | IC50 (nM), C5b-9 deposition, lectin pathway in diluted rat serum on mannan [9] | Ki [10] | fold of the lectin pathway IC50 against SGMI-2 [11] | binding result [12]
B1 | 0.094 nM | no binding | no binding | 3 fold | 35 nM | 2 nM | 640 nM | – | – | – | – | – | – | – | – | –
B2 | 0.004 nM | – | no binding | – | 90 nM | 7.9 nM | 7.2 nM | 4 fold | 25 fold | ~3 fold | 869 nM | 108 nM | 940 nM | ~30000 nM | – | –
B3 | 0.017 nM | no binding | no binding | – | 380 nM | 36.7 nM | 7.5 nM | 18 fold | 25 fold | ~3 fold | – | – | – | – | 2 fold | –
B4 | – | – | – | – | – | – | – | – | – | – | – | – | – | – | – | binds
GSGEVTCEPGTTFKDKCNTCRCGSDGKSAVCTKLWCNQ (designed binder, Comparator from WO 2012/007777) [SGMI-2 (SGCI-based MASP inhibitor 2)] | 100 nM | – | no binding | – | 174 nM | 8.1 nM | 22.7 nM | – | – | – | 2240 nM | 457 nM | 4000 nM | – | – | –
